This is an account of results in the RNAGym collection of RNA variant scans (doi:10.1073/pnas.2313332121).

To fix the notation:
B1: TPR 5TU (parent)
chain: GGAUCUUCUCGAUCUAACAAAAAAGACAAAUCUGCCACAAAGCUUGAGAGCAUCUUCGGAUGCAGAGGCGGCAGCCUUCGGUGGCGCGAUAGCGCCAACGUUCUCAACUAUGACACGCAAAACGCGUGCUCCGUUGAAUGGAGUUUAUCAUG

This sample holds only a part of the variants without activity.

In this data set the parent is B1. As to the kind of experiment: polymerase ribozyme fitness, log enrichment relative to wild type (log ratio); higher = more active; in vitro selection for triplet polymerase activity. The method in brief: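 PCR was used to build mutant libraries for each subunit of a heterodimeric triplet polymerase ribozyme, which were then transcribed. A single in vitro selection round, in triplicate, used a frozen incubation at −7 °C and recovered extended constructs by gel excision, streptavidin beads and RT-PCR. Fitness is the logarithm of genotype enrichment relative to wild-type enrichment, averaged over replicates with inverse-variance weights. The logarithm is base 2, and after Illumina sequencing only genotypes with ≥10 input reads and ≥1 read per output were kept.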
As to A49C A52G G81A C87U U102C C114G A150G, the “polymerase ribozyme fitness (log ratio)” value is not above -4.2. The figure for C35G G70A C87G U109C is not above -4.2. The figure for A29U C57A U61A A121U is not above -4.2.

As to A3C C93G, the “polymerase ribozyme fitness (log ratio)” value is not above -4.2. The figure for C75U G83U is -3.08; for G84A G117A C129A it is -2.45; for C8G G11U G50A C116G U146G it is not above -4.2. With C27A C43A A60U C87A G143U the figure was not above -4.2; with A40G C95U, -2.52; with G68C C69A G92U G136A, -4.11. With C36G C69A U78C C85U U102C U127A the figure was not above -4.2; with C8U A22C A39G C85G A106G A119G, not above -4.2. Consider U9C A19G A30G C35A U56A C87G G117U U148C, for which the “polymerase ribozyme fitness (log ratio)” value is not above -4.2.

In the case of A29C A52C C76U C96A U135G A147C, the “polymerase ribozyme fitness (log ratio)” value was -4.08.

As for A91U C125A, the “polymerase ribozyme fitness (log ratio)” value is -3.87. The figure for A16G A37U G92U is -2.9; for C10U C32G A39U U55A C95G C96A C149U it is not above -4.2; for C32G G46U A47C G59A it is -4.03.

Regarding C18A A73G G83C C118U A150G, the “polymerase ribozyme fitness (log ratio)” value was not above -4.2. Turning to C14G C85A, the “polymerase ribozyme fitness (log ratio)” value is -3.74.

As to A60G A120G G128C A142G, the “polymerase ribozyme fitness (log ratio)” value is -2.95. The figure for U53A U109G C116A G136C U144C is -4.07; for U6G A12U G42C C76U C96G U134G U146G it is not above -4.2. As for A47C, the “polymerase ribozyme fitness (log ratio)” value is -0.224.

For U61A U77G C85U C125A, the “polymerase ribozyme fitness (log ratio)” value was not above -4.2. The figure for C38U G80U U134G A142C G152U is -3.64; for A12U A21C A52C C85U it is -1.19.

Consider C69U U102C, for which the “polymerase ribozyme fitness (log ratio)” value was -2.59.

Regarding C8U U31A C32G C54U G83U U104A A107C, the “polymerase ribozyme fitness (log ratio)” value is not above -4.2. The figure for C36U G141C is -2.17. With C72U C75U C87A U90A C95G U102G A150G the figure was not above -4.2; with A26C G59A C76U G84U G88A G126A, not above -4.2. The figure for A60G C93U C95A U145A is -1.82; for A39G G84A it is -1.84. With C69A U77G C118U U139C, the “polymerase ribozyme fitness (log ratio)” value was not above -4.2.

Regarding A3G A16C A22G A73G G84U C123U G141U, the “polymerase ribozyme fitness (log ratio)” value is not above -4.2. With A12U A49U A52C G67A C72A C85A G86C A119U the figure was not above -4.2; with C8A C85U C116U G141A, not above -4.2. Consider A3U U6A A19U G42U A113G A121U G124C U148A, for which the “polymerase ribozyme fitness (log ratio)” value was not above -4.2. Take A19G C38U A40C C79A G86U C96G: the “polymerase ribozyme fitness (log ratio)” value is not above -4.2. Take A64U C103G U134G G141C: the “polymerase ribozyme fitness (log ratio)” value was not above -4.2. The figure for A16U C57G U77A G88U is not above -4.2; for A24G C27U G42C U55G it is not above -4.2; for G84U C87G it is -3.88.

Regarding A40U A52U G126U U135G A142G, the “polymerase ribozyme fitness (log ratio)” value was not above -4.2.

As to A60U U61A G84U G128A G140C U148C, the “polymerase ribozyme fitness (log ratio)” value is not above -4.2. A17U U44G U56G G128U: the “polymerase ribozyme fitness (log ratio)” value is not above -4.2. Regarding G48U C85A U144C, the “polymerase ribozyme fitness (log ratio)” value was -2.1.

As to A12G A20U C103A C116A A121U C129A, the “polymerase ribozyme fitness (log ratio)” value was not above -4.2. Take C35G A40U G71A C87U G136U U148G: the “polymerase ribozyme fitness (log ratio)” value was not above -4.2. With A89G C108U the figure was -3.7; with U6A A22C A39U U44A G70A C99A, not above -4.2; with G88C C131G U151G, not above -4.2.

As to U31G C54G A60G C85A C99A, the “polymerase ribozyme fitness (log ratio)” value is not above -4.2. The figure for C93U G124A is -1.3; for U6C C32U C54A it is -4. Take C8G A23C A30U G59A C95A A119U G141C: the “polymerase ribozyme fitness (log ratio)” value was not above -4.2. As to U13G A19U C51U A97U, the “polymerase ribozyme fitness (log ratio)” value is -2.04. The figure for C75G G81U C95A G152U is not above -4.2; for G59A U135A G141U it is -1.18; for G83C G124A A137G it is -1.97. The figure for G59C A115C is -0.396; for A47C C79G it is not above -4.2. The figure for A20C G92U C125A is -0.863. As to U33C C43G G50C G58A G86A C105A A137G, the “polymerase ribozyme fitness (log ratio)” value was not above -4.2. The figure for U45A A97U is -2.84.

A47C G88U: the “polymerase ribozyme fitness (log ratio)” value is -3.96. The figure for G34A C38A C76G C99G U104A A107U G143A is not above -4.2. For the variant U6A A20G U45A, the “polymerase ribozyme fitness (log ratio)” value was -3.51.

For the variant G42U G58A G70U A73G G84U C85U U144G A150U, the “polymerase ribozyme fitness (log ratio)” value was not above -4.2. As to U56A U148C, the “polymerase ribozyme fitness (log ratio)” value was -1.25.

A49C A66U C75G C87G C93A A98G A115U U127G G152C: the “polymerase ribozyme fitness (log ratio)” value was not above -4.2. The figure for A20U C93G A121U A142U is not above -4.2; for A22U C57U it is -0.0575; for C27G A40C A66G C79U A91C it is -4.03. On to C8G G94A, for which the “polymerase ribozyme fitness (log ratio)” value is -3.64.

With C93A A115G C116U, the “polymerase ribozyme fitness (log ratio)” value was -2.39. The figure for U56A U139C is -3.15; for C51U C57G G58C C69A A98U C105G C116U A150U it is not above -4.2; for C85U C116U A147U it is 0.541.

As to A24U G65U A91C U104A A110G G140A U144G, the “polymerase ribozyme fitness (log ratio)” value was not above -4.2. The figure for G11C U33A U44C C76A A89U C95U A122C C123U G133A is not above -4.2; for C85U C118G C125A it is -0.0117.
